Assay results taken from the supplement of paper PMC10724198.
± gives the standard deviation of the averaged measurements.

Key:
Saccharomyces cerevisiae [1] = test: protein stability index of tFT-peptide fusion (C-terminal peptide) (PSI (0-1 scale)); higher = more stable (slower turnover)
Protocol: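 MPS profiling in S. cerevisiae of the tFT-X12 degron library: putative degron peptides plus stable controls, 12 aa, fused to the C-terminus of a sfGFP-mCherry timer. Cells are FACS-sorted into 8 mCherry/sfGFP bins and deep-sequenced. PSI runs from 0 (unstable) to 1 (stable). Backgrounds are wild type, das1Δ and doa10Δ at 30 °C, and wild type, das1Δ, cdc34-1 and cdc53-1 at 37 °C; 2-3 technical replicates each.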

Saccharomyces cerevisiae [2] = test: as above; conditions: genetic background: wild type; temperature: 30 C
[3] = genetic background: cdc34-1, temperature: 37 C
[4] = genetic background: cdc53-1, temperature: 37 C
[5] = genetic background: das1 deletion, temperature: 30 C
[6] = genetic background: das1 deletion, temperature: 37 C
[7] = genetic background: doa10 deletion, temperature: 30 C
[8] = genetic background: wild type, temperature: 30 C
[9] = genetic background: wild type, temperature: 37 C
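Note: PSI is a weighted mean of sequencing reads over stability bins, variants kept only with over 10 reads, mCherry proximal and sfGFP distal, peptide attached via GGGS linker.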

Sequence | protein stability index (Saccharomyces cerevisiae [1]; [3]) | protein stability index (Saccharomyces cerevisiae [1]; [4]) | protein stability index (Saccharomyces cerevisiae [1]; [5]) | protein stability index (Saccharomyces cerevisiae [1]; [6]) | protein stability index (Saccharomyces cerevisiae [1]; [7]) | protein stability index (Saccharomyces cerevisiae [1]; [8]) | protein stability index (Saccharomyces cerevisiae [1]; [9]) | protein stability index (Saccharomyces cerevisiae [2])
GGVSPRSSMDLL | 0.6849 ± 0.0066 | 0.764 ± 0.01 | 0.646 ± 0.023 | 0.736 ± 0.029 | 0.648 ± 0.0075 | 0.645 ± 0.012 | 0.7319 ± 0.0035 | 0.434 ± 0.21
ELTYVYRTALIA | 0.152 ± 0.004 | 0.157 ± 0.0057 | 0.204 ± 0.016 | 0.276 ± 0.0057 | 0.0966 ± 0.011 | 0.105 ± 0.014 | 0.0995 ± 0.017 | 0.183 ± 0.045
VRICVVLRVCWW | 0.0855 ± 0.0017 | 0.139 ± 0.00094 | 0.115 ± 0.034 | 0.217 ± 0.0071 | 0.117 ± 0.034 | 0.12 ± 0.024 | 0.18 ± 0.0089 | 0.256 ± 0.092
FTRLDYKRIKIV | 0.184 ± 0.18 | 0.625 ± 0.15 | 0.62 ± 0.017 | 0.768 ± 0.068 | 0.0655 ± 0.014 | 0.0685 ± 0.03 | 0.0698 ± 0.0013 | 0.102 ± 0.024
LGVLVVCFNATY | 0.24 ± 0.0032 | 0.343 ± 0.0057 | 0.27 ± 0.014 | 0.42063 ± 0.00021 | 0.2506 ± 0.00074 | 0.264 ± 0.02 | 0.376 ± 0.017 | 0.354 ± 0.013
LLGGFAAFWRIL | 0.631 ± 0.061 | 0.713 ± 0.0012 | 0.618 ± 0.012 | 0.753 ± 0.014 | 0.135 ± 0.015 | 0.15 ± 0.02 | 0.297 ± 0.026 | 0.226 ± 0.06
SWGRGADRWRRA | 0.645 ± 0.042 | 0.7218 ± 0.0025 | 0.649 ± 0.017 | 0.7267 ± 0.0056 | 0.156 ± 0.019 | 0.195 ± 0.016 | 0.4725 ± 0.0013 | 0.319 ± 0.056
VCLFSVCLWFVS | 0.0838 ± 0.025 | 0.219 ± 0.062 | 0.16 ± 0.026 | 0.313 ± 0.011 | 0.124 ± 0.0088 | 0.141 ± 0.015 | 0.227 ± 0.013 | 0.21 ± 0.044
PRSLHVLSRFLP | 0.692 ± 0.06 | 0.7371 ± 0.0014 | 0.651 ± 0.017 | 0.763 ± 0.037 | 0.599 ± 0.048 | 0.606 ± 0.031 | 0.712 ± 0.02 | 0.691 ± 0.018
GVAFGLLVWLLG | 0.432 ± 0.021 | 0.509 ± 0.014 | 0.357 ± 0.026 | 0.5307 ± 0.0018 | 0.304 ± 0.02 | 0.326 ± 0.033 | 0.484 ± 0.0068 | 0.378 ± 0.071
CLLLFFIFLLFL | 0.484 ± 0.065 | 0.452 ± 0.0092 | 0.387 ± 0.036 | 0.463 ± 0.032 | 0.49 ± 0.026 | 0.376 ± 0.024 | 0.493 ± 0.029 | 0.41 ± 0.05
RGSLLRWFLAAQ | 0.628 ± 0.031 | 0.707 ± 0.012 | 0.654 ± 0.034 | 0.706 ± 0.022 | 0.289 ± 0.0095 | 0.31 ± 0.029 | 0.541 ± 0.019 | 0.443 ± 0.014
SFPPLPPLPLPP | 0.64 ± 0.032 | 0.688 ± 0.0089 | 0.578 ± 0.0094 | 0.6778 ± 0.0031 | 0.594 ± 0.014 | 0.5917 ± 0.0043 | 0.6445 ± 0.0054 | 0.571 ± 0.2
TCVVCSCVLQCV | 0.47 ± 0.041 | 0.491 ± 0.02 | 0.307 ± 0.023 | 0.49 ± 0.0051 | 0.305 ± 0.027 | 0.324 ± 0.028 | 0.4641 ± 0.0042 | 0.362 ± 0.04
FFLLLLRPPLVM | 0.34 ± 0.035 | 0.363 ± 0.0046 | 0.275 ± 0.035 | 0.4464 ± 0.0041 | 0.276 ± 0.0029 | 0.267 ± 0.03 | 0.41225 ± 0.0001 | 0.374 ± 0.051
